The target of this test is human inducible heat shock protein 70 (hHsp70), full-length, non-tagged (human). As to the kind of experiment: BLI; biotinylated hHsp70 or DnaK immobilised on streptavidin biosensor tips, analyte in PBS (hHsp70 200-500 nM; hHsp40 20-50 nM; DnaK 200-500 nM), association 600 s, dissociation 600 s, 1:1 model.

The source of these data is publication PMC4255253.

pKd: −log10 of the molar value.

human inducible heat shock protein 70 (hHsp70), full-length, non-tagged (human), sequence (P0DMV8 whole entry E110D): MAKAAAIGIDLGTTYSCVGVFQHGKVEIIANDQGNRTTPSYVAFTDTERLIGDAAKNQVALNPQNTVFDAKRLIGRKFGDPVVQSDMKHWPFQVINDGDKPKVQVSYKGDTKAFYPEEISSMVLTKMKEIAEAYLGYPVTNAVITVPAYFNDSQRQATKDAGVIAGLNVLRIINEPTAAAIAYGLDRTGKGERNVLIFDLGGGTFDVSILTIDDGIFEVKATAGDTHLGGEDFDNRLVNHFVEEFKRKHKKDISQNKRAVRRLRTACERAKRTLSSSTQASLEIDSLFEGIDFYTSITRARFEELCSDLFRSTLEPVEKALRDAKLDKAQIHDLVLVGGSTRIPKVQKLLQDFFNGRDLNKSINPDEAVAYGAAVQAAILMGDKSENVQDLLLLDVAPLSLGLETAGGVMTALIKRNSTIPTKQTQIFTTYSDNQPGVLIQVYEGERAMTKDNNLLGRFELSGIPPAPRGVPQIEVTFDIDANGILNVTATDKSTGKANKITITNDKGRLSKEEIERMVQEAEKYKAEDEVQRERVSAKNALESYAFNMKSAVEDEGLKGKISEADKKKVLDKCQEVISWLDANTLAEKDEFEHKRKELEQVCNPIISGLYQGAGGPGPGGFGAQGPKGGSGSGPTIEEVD

On to “human heat shock protein 40 (hHsp40) (from UniProt P25685 1-340) (natural protein)”, for which the pKd was 9.28.
